Test results from publication doi:10.1101/2022.11.26.518022 (bioRxiv, 2022).

What was measured:
Unr CSD789 (A756-D990) = target: T1, Unr CSD789 (A756-D990) (Drosophila, UniProt B7Z0E2 756-990); experiment: NMR titration
T1 sequence (looked up): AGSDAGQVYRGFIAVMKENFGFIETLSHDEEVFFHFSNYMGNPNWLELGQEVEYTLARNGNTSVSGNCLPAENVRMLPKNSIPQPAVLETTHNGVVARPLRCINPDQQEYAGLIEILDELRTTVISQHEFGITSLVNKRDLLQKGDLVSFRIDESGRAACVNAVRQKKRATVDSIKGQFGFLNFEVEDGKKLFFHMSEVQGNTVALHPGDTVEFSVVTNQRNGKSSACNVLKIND

Unr CSD78 (A756-K922) = target: T2, Unr CSD78 (A756-K922) (Drosophila, UniProt B7Z0E2 756-922); experiment: NMR titration
T2 sequence (looked up): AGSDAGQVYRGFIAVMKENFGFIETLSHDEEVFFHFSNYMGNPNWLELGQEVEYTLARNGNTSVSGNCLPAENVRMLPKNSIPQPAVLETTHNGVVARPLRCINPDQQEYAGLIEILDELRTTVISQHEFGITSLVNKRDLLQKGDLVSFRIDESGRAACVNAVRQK

binding result (Unr CSD789 (A756-D990)): binds
binding result (Unr CSD78 (A756-K922)): binds
B1: pAbp RRM3 (G176-A263) (domain or fragment)
chain: not shown
